Test results from paper PMC5241874.

B1: αγ heterodimer of human NAD-IDH (IDH3) (Homo sapiens) (protein)
chain 1: TGGVQTVTLIPGDGIGPEISAAVMKIFDAAKAPIQWEERNVTAIQGPGGKWMIPSEAKESMDKNKMGLKGPLKTPIAAGHPSMNLLLRKTFDLYANVRPCVSIEGYKTPYTDVNIVTIRENTEGEYSGIEHVIVDGVVQSIKLITEGASKRIAEFAFEYARNNHRSNVTAVHKANIMRMSDGLFLQKCREVAESCKDIKFNEMYLDTVCLNMVQDPSQFDVLVMPNLYGDILSDLCAGLIGGLGVTPSGNIGANGVAIFESVHGTAPDIAGKDMANPTALLLSAVMMLRHMGLFDHAARIEAACFATIKDGKSLTKDLGGNAKCSDFTEEICRRVKDLD
chain 2: FSEQTIPPSAKYGGRHTVTMIPGDGIGPELMLHVKSVFRHACVPVDFEEVHVSSNADEEDIRNAIMAIRRNRVALKGNIETNHNLPPSHKSRNNILRTSLDLYANVIHCKSLPGVVTRHKDIDILIVRENTEGEYSSLEHESVAGVVESLKIITKAKSLRIAEYAFKLAQESGRKKVTAVHKANIMKLGDGLFLQCCREVAARYPQITFENMIVDNTTMQLVSRPQQFDVMVMPNLYGNIVNNVCAGLVGGPGLVAGANYGHVYAVFETATRNTGKSIANKNIANPTATLLASCMMLDHLKLHSYATSIRKAVLASMDNENMHTPDIGGQGTTSEAIQDVIRHIRVINGRAVEA
notes: alpha and gamma co-expressed in E. coli BL21(DE3) from pQlinkN; gamma C-terminal TEV-His6, His6 cleaved by TEV; 80 kDa heterodimer (dimer of heterodimers at high concentration)
B2: αγ heterodimer of human NAD-IDH (IDH3) (Homo sapiens; P50213:N202A) (protein)
chain 1: TGGVQTVTLIPGDGIGPEISAAVMKIFDAAKAPIQWEERNVTAIQGPGGKWMIPSEAKESMDKNKMGLKGPLKTPIAAGHPSMNLLLRKTFDLYANVRPCVSIEGYKTPYTDVNIVTIRENTEGEYSGIEHVIVDGVVQSIKLITEGASKRIAEFAFEYARNNHRSNVTAVHKAAIMRMSDGLFLQKCREVAESCKDIKFNEMYLDTVCLNMVQDPSQFDVLVMPNLYGDILSDLCAGLIGGLGVTPSGNIGANGVAIFESVHGTAPDIAGKDMANPTALLLSAVMMLRHMGLFDHAARIEAACFATIKDGKSLTKDLGGNAKCSDFTEEICRRVKDLD
chain 2: FSEQTIPPSAKYGGRHTVTMIPGDGIGPELMLHVKSVFRHACVPVDFEEVHVSSNADEEDIRNAIMAIRRNRVALKGNIETNHNLPPSHKSRNNILRTSLDLYANVIHCKSLPGVVTRHKDIDILIVRENTEGEYSSLEHESVAGVVESLKIITKAKSLRIAEYAFKLAQESGRKKVTAVHKANIMKLGDGLFLQCCREVAARYPQITFENMIVDNTTMQLVSRPQQFDVMVMPNLYGNIVNNVCAGLVGGPGLVAGANYGHVYAVFETATRNTGKSIANKNIANPTATLLASCMMLDHLKLHSYATSIRKAVLASMDNENMHTPDIGGQGTTSEAIQDVIRHIRVINGRAVEA
notes: as for B1
B3: αγ heterodimer of human NAD-IDH (IDH3) (Homo sapiens; P50213:K200A) (protein)
chain 1: TGGVQTVTLIPGDGIGPEISAAVMKIFDAAKAPIQWEERNVTAIQGPGGKWMIPSEAKESMDKNKMGLKGPLKTPIAAGHPSMNLLLRKTFDLYANVRPCVSIEGYKTPYTDVNIVTIRENTEGEYSGIEHVIVDGVVQSIKLITEGASKRIAEFAFEYARNNHRSNVTAVHAANIMRMSDGLFLQKCREVAESCKDIKFNEMYLDTVCLNMVQDPSQFDVLVMPNLYGDILSDLCAGLIGGLGVTPSGNIGANGVAIFESVHGTAPDIAGKDMANPTALLLSAVMMLRHMGLFDHAARIEAACFATIKDGKSLTKDLGGNAKCSDFTEEICRRVKDLD
chain 2: FSEQTIPPSAKYGGRHTVTMIPGDGIGPELMLHVKSVFRHACVPVDFEEVHVSSNADEEDIRNAIMAIRRNRVALKGNIETNHNLPPSHKSRNNILRTSLDLYANVIHCKSLPGVVTRHKDIDILIVRENTEGEYSSLEHESVAGVVESLKIITKAKSLRIAEYAFKLAQESGRKKVTAVHKANIMKLGDGLFLQCCREVAARYPQITFENMIVDNTTMQLVSRPQQFDVMVMPNLYGNIVNNVCAGLVGGPGLVAGANYGHVYAVFETATRNTGKSIANKNIANPTATLLASCMMLDHLKLHSYATSIRKAVLASMDNENMHTPDIGGQGTTSEAIQDVIRHIRVINGRAVEA
notes: as for B1

Substrate: O=C(O)CC(C(=O)O)C(O)C(=O)O
Test: purified protein
Format: biochemical, Homo sapiens
Details: no activators, 2 mM Mn2+, 3.2 mM NAD, 33 mM Tris-acetate pH 7.4, 25 °C, Hill 2.0, racemic DL-ICT varied

| Protein | K0.5 | kcat/Km | K0.5 (Hill 1.2) | kcat/Km (Hill 1.2) |
| --- | --- | --- | --- | --- |
| B1 | 4.49 ± 0.15 mM | 2160 ± 30 M⁻¹ s⁻¹ |  |  |
| B2 |  |  | 5.80 ± 0.84 mM | 290 ± 10 M⁻¹ s⁻¹ |
| B3 |  |  | 6.38 ± 1.27 mM | 380 ± 30 M⁻¹ s⁻¹ |
